Assay results as given in patent US20260265360A1, “USE OF ANTI-FAM19A5 ANTAGONISTS FOR TREATING HEARING DISORDERS” (NEURACLE SCIENCE CO., LTD., priority 2023, published 2026).

B1: 1-28: anti-FAM19A5 antibody; VH SEQ ID NO: 38, VL SEQ ID NO: 42 (antibody, V domains shown)
VH: AVTLDESGGGLQTPGGALSLVCKASGFDFSDYGMGWVRQAPGKGLEWVAAIRSDGSNPSYGSAVKGRATISKDNGRSTVRLQLNNLRAEDTATYYCAKDGNGYCALDAYRSGGYSCGVYPGSIDAWGHGTEVIVSS
VL: ALTQPSSVSANLEGTVEITCSGSGYGYGWYQQKSPGSAPVTVIYQNDKRPSDIPSRFSGSKSGSTGTLTITGVQVEDEAVYYCGSEDSSTLAGIFGAGTTLTVL
modifications: 1-28 VH; 1-28 VL
B2: 1-65: anti-FAM19A5 antibody; VH SEQ ID NO: 37, VL SEQ ID NO: 41 (antibody, V domains shown)
VH: AVTLDESGGGLQTPGGALSLVCKASGFTFSSYQMGWVRQAPGKGLEWVGVINKSGSDTSYGSAVKGRATISRDNGQSTVRLQLNNLRAEDTGTYFCAKGSASYITAATIDAWGHGTEVIVSS
VL: ALTQPSSVSANPGETVKITCSGGGSSGYGYGWYQQKSPSSAPLTVIYWNDKRPSDIPSRFSGSKSGSTHTLTITGVQAEDEAVYFCGNDDYSSDSGYVGVFGAGTTLTVL
modifications: 1-65 VH; 1-65 VL
B3: 13B4: anti-FAM19A5 antibody; VH SEQ ID NO: 156, VL SEQ ID NO: 167 (antibody, V domains shown)
VH: QVQLQESGPGLVKPSGTLSLNCAVSGGSISSSNWWSWVRQPPGKGLEWIGEIYHGGTTNYNPSLKGRVTMSVDKTKNQFSLRLSSVTAVDTAVYYCARWQLVGGLDVWGQGTTVTVSS
VL: SYELTQPLSVSVSPGQTASITCSGDKLGNVYASWYQQKPGQSPTLVIYQDNKRPSGIPERFSGSNSGKTATLTISGTQALDEADYYCQAWDSSTAVFGGGTKLTVL
modifications: 13B4 VH; 13B4 VL
B4: P2-C12: anti-FAM19A5 antibody; VH SEQ ID NO: 155, VL SEQ ID NO: 166 (antibody, V domains shown)
VH: QSLEESGGRLVTPGTPLTLTCTVSGFSLSTYAVTWVRQAPGKGLEWIGYINWRGGTSYANWAKGRFTISKTSSTTVDLKMTSPTTEDTATYFCARDASSGAAFGSYGMDPWGPGTLVTVSS
VL: ELDMTQTPSSVSAAVGGTVTIKCQASQSISSYLSWYQQKPGQPPKLLIYEASKLASGVPSRFSGSGYGTEFTLTISDLECADAATYYCQQGYSSTNVWNAFGGGTNVEIK
modifications: P2-C12 VH; P2-C12 VL

Tests used:
FAM19A5 mutants M1 to M8 [1] = molecular target: T1, FAM19A5 mutants M1 to M8 (Homo sapiens, UniProt Q7Z5A7, D53C/P57N/Q56K/S54C/S55N); experiment: Epitope mapping ELISA with FAM19A5 mutants M1-M8; assay type: binding
T1 construct: made in house; host or cells: phage display with helper phage
T1 sequence (Q7Z5A7 26-125 isoform Q7Z5A7-2 D46C/S47C/S48N/Q49K/P50N): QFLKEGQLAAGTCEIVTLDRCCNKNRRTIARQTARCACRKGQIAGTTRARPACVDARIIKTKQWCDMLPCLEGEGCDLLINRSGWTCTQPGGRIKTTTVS
Description: (§1) To further characterize the binding epitopes of the anti-FAM19A5 antibodies disclosed in the present disclosure, the amino acid sequences for the different FAM19 family members (i.e., FAM19A1-5) were aligned. […] The amino acid sequences of these regions were replaced with the consensus sequence of the corresponding regions for the FAM19A1-4 proteins. See Table 13 (the mutated amino acid residues are bolded and underlined).
(§2) The mutant FAM19A5-expressing phages were prepared as follows. To prepare the media for phage culture, 55.6 ml of 2M Glucose (D-(+)-Glucose, Sigma), 5 mL of 1M MgCl2 (Magnesium chloride, Junsei) 1 mL of 34 mg/mL chloramphenicol (Sigma) were added to 2×YT media. Colonies obtained through mono-phage ELISA were selected and placed in 5 mL of prepared media (2×YT-GMC) to be cultured for 16 hours at 37° C. with shaking incubator (VS-8480, Vision). 100 μL of each culture was transferred to 10 mL 2×YT-GMC individually which were cultured at 37° C. in the incubator until detection value at O.D. 600 nm reached 0.5. Once detection value has reached 0.5 at O.D. 600 nm, 5 mL of each culture were obtained as samples to be infected. Following sample preparation, 50 μL of […] was added to individual samples then incubated at 37° C. without shaking for 30 minutes and with shaking for additional 30 minutes. Individual cultures were centrifuged for 15 minutes at 3,850 rpm using Micro centrifuge (Micro12, Hanil). The supernatants of centrifuged cultures were removed to be kept separate and replaced with 5 mL of 2×YT media containing 1 mL of IM IPTG (AG Scientific), 5 mL of 1M MgCl2.1 ml of 70 μg/μL kanamycin (Biopure) and 1 mL of Chloramphenicol. The resulting pellets were dispersed thoroughly in newly added media followed by incubation at 30° C. for 16 hours with stirring.

[2] = test system: FAM19A5 epitope fragment F2 mutant peptides; experiment: ELISA binding to mutant F2 peptide fragments (alanine scanning); design: species or system human
From the text: FIGS. 25A-25J provide the results of the alanine scanning analysis, showing the specific amino acid residues in the epitope F2 fragment that are important for the binding of the various 3-2 antibody variants to FAM19A5 protein. FIGS. 25A, 25B, 25C, and 25D show the results for the following antibodies generated in HEK293F cells: (A) wild-type 3-2 antibody, (B) 1-30 antibody, (C) 1-32 antibody, and (D) 6-10 antibody, respectively. FIGS. 25E, 25F, 25G, 25H, 25I, and 25J show the results for the following antibodies generated in CHO cells: (E) 1-17 antibody, (F) 1-30 antibody, (G) 1-32 antibody, (H) 4-11 antibody, (I) 6-10 antibody, and (J) low-PI antibody, respectively. […] Binding of the antibodies to the different mutant peptides was measured using ELISA.
Overlapping peptide fragments (F1-F6 epitope fragments; SEQ ID NOs: 178-183) of the human FAM19A5 protein were synthesized and conjugated to BSA (SEQ ID NOs: 322-327). Binding of the different anti-FAM19A5 antibodies to the BSA-conjugated peptide fragments F1-F6 was determined by Western blot analysis or ELISA assay. […] The membrane was incubated with the anti-FAM19A5 antibody (e.g., 1-65, […], 1-65-scFv-rabbit Fc-SSS), and the antigen-antibody complexes were detected with the appropriate secondary antibody conjugated with horse-radish peroxidase (anti-rabbit IgG (Fc specific)-HRP, 1:4000 dilution). […]

FAM19A5 mutants M1 to M8 [3] = molecular target: T2, FAM19A5 mutants M1 to M8 (Homo sapiens, UniProt Q7Z5A7, D109K/G107E/I112P/L110T/N113D/R114N); experiment: Epitope mapping ELISA with FAM19A5 mutants M1-M8; assay type: binding
T2 construct: made in house; host or cells: phage display with helper phage
T2 sequence (Q7Z5A7 26-125 isoform Q7Z5A7-2 G100E/D102K/L103T/I105P/N106D/R107N): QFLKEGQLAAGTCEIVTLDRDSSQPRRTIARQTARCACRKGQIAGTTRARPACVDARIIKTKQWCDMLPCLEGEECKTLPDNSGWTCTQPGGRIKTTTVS
Description: as §1, §2

FAM19A5 mutants M1 to M8 [4] = molecular target: T3, FAM19A5 mutants M1 to M8 (Homo sapiens, UniProt Q7Z5A7); experiment: Epitope mapping ELISA with FAM19A5 mutants M1-M8; assay type: binding
T3 construct: made in house; host or cells: phage display with helper phage
T3 sequence (Q7Z5A7 with tags, fused parts or gaps isoform Q7Z5A7-2, change not shown): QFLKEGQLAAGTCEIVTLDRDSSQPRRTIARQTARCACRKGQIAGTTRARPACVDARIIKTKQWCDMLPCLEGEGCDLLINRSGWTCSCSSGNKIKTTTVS
Description: as §1, §2

FAM19A5 mutants M1 to M8 [5] = molecular target: T4, FAM19A5 mutants M1 to M8 (Homo sapiens, UniProt Q7Z5A7, D98Q/K92L/K94R/L100E/P101L/Q95W/T93Q); experiment: Epitope mapping ELISA with FAM19A5 mutants M1-M8; assay type: binding
T4 construct: made in house; host or cells: phage display with helper phage
T4 sequence (Q7Z5A7 26-125 isoform Q7Z5A7-2 K85L/T86Q/K87R/Q88W/D91Q/L93E/P94L): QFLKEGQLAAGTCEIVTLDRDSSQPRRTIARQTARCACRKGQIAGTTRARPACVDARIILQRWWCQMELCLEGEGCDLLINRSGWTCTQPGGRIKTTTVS
Description: as §1, §2

[6] = test system: FAM19A5 epitope fragment F5 mutant peptides F5-1 to F5-8; experiment: ELISA binding to mutant F5 peptide fragments (alanine substitution); design: species or system human
Description: (§3) Overlapping peptide fragments (F1-F6 epitope fragments; SEQ ID NOs: 178-183) of the human FAM19A5 protein were synthesized and conjugated to BSA (SEQ ID NOs: 322-327). Binding of the different anti-FAM19A5 antibodies to the BSA-conjugated peptide fragments F1-F6 was determined by Western blot analysis or ELISA assay. For the Western blot analysis, BSA-conjugated FAM19A5 fragments F1-F6 were separated by SDS polyacrylamide gel electrophoresis and transferred to a nitrocellulose membrane by the standard procedure. The membrane was incubated with the anti-FAM19A5 antibody (e.g., 1-65, […], 1-65-scFv-rabbit Fc-SSS), and the antigen-antibody complexes were detected with the appropriate secondary antibody conjugated with horse-radish peroxidase (anti-rabbit IgG (Fc specific)-HRP, 1:4000 dilution). For the ELISA assay, the following protocol was used. FAM19A5 fragment F1-F6 (diluted to 1 μg/mL in 50 mM carbonate buffer (Biosesang) or to 20 μg/mL for high concentration analysis) were used to coat the wells of 96-well immuno plates (Thermo Scientific) (100 μL/well) overnight at 4° C. and then subsequently washed twice in 1×PBS. The plates were then blocked with the blocking buffer (100 μL/well) for 1 hour at room temperature. During the 1-hour incubation, the relavant anti-FAM19A5 antibodies were diluted to 1 μg/mL (or 20 μg/mL for high concentration analysis) in the diluent buffer. Once the plates were washed (2× using 1×PBS), the diluted anti-FAM19A5 antibodies were added to the appropriate wells, and the plates were incubated at room temperature for 1 hour. The plates were subsequently washed for a total of five times using the washing buffer. Next, the ODP substrate (prepared by dissolving one ODP tablet (O-phenylenediamine Dihydrochloride, Thermo) into 9 mL of sterilized deionized water and 1 mL of 10× stable Peroxide Stable buffer (Theromo)) was added to each of the wells, and the color change reaction was allowed to occur for 10 minutes. This reaction was stopped by adding 100 μL of 2N H2SO4 (Daejung) to the wells. The absorption value of each of the wells was detected at 492 nm using a 96-well microplate reader (Molecular Device).
Next, to identify the specific amino acid residues within the eptitope fragment F5 that the 1-65 and P2-C12 antibodies bind to, different amino acid residues of the F5 fragment were replaced with alanine as shown in Table 11 (below). The mutated residues are bolded and underlined. The binding affinity of the indicated anti-FAM19A5 antibodies were measured using an ELISA assay as described above.

[7] = test system: human FAM19A5 protein epitope fragments F1-F6; experiment: Epitope mapping: binding to BSA-conjugated FAM19A5 epitope fragments F1-F6 (Western blot / ELISA); details: for binding to epitope fragment F5: Western blot and/or ELISA
Description: as §3

FAM19A5 antigen = FAM19A5 antigen (Homo sapiens, UniProt Q7Z5A7); experiment: Cross-competition two-site sandwich ELISA; assay type: binding; details: antibodies 1-65, P2-A03, P2-F11, 13B4, 2-13, 3-2; cross-competition = S/N ratio lower than 2
FAM19A5 antigen, sequence (Q7Z5A7 44-132): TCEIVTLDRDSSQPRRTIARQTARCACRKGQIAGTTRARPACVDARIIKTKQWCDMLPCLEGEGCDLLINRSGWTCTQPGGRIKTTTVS
Description: The term “S/N” refers to the signal to noise ratio, which is measured as follows: [O.D. of 10 ng/ml antigen]/[O.D. of 0 ng/ml antigen].
Next, a two-site sandwich ELISA was used as described below to assess whether the different anti-FAM19A5 antibodies with similar binding epitopes cross-compete with each other.
First, the indicated anti-FAM19A5 antibodies were diluted in 1×PBS to a concentration of 10 μg/mL. The diluted anti-FAM19A5 antibodies (10 μg/mL in 1×PBS) (“capture antibody”) were used to coat the 96-well plates (100 μL/well) at 37° C. for approximately 1 hour. After the incubation, the plates were washed with the washing buffer (0.01% Tween-20/PBS; also called 0.01% PBST) for a total of five washes, blocked with the blocking solution (5% BSA/PBS; also called 5% PBSA) (250 μL/well) for one hour at 37° C., and then washed again. Next, 100 μg/mL of the FAM19A5 antigen (diluted in PBS containing 5% BSA, 0.01% Tween-20; also called 5% PBSAT; “diluent buffer) was added to each of the wells, and the 96-well plates were incubated for 2 hours at 37° C. After the incubations, the plates were washed using 0.01% PBST for a total of five washes. After the final wash, the indicated biotinylated anti-FAM19A5 antibodies (“detection antibody”) (diluted to lug/mL in 5% PBSAT) were added to the relevant wells (100 μL volume) and the plates were incubated for an additional 1 hour at 37° C. Afterwards, the plates were washed again with 0.01% PBST (five total washes). Next, 100 μL of the diluted (1/2000 in 5% PBSAT) Streptavidin-HRP (1 mg/mL, Sigma, USA) was added to the wells, and the plates were incubated for 30 minutes at room temperature. The plates were then washed and treated with 100 μL of the TMB substrate ([…], Thermo Fisher Scientific). After an additional 30-minute incubation at room temperature, the color change reaction was induced by the addition of the TMB substrate. This reaction was stopped using 50 μL of sulfuric acid (2N H2SO4), and the extent of color change was detected via absorption at 450 nm with reference wavelength at 620 nm using a 96 well microplate reader (Molecular Device).

Molecule	binding to FAM19A5 mutant M2 (FAM19A5 mutants M1 to M8 [1])	binding to mutant F2 peptide fragments #1, 2, 6, and 8-13 [2]	binding to mutant F2 peptide fragments #3, 4, 5, and 7 [2]	binding to FAM19A5 mutant M7 (FAM19A5 mutants M1 to M8 [3])	binding to FAM19A5 mutant M8 (FAM19A5 mutants M1 to M8 [4])	binding to FAM19A5 mutant M6 (FAM19A5 mutants M1 to M8 [5])	binding to F5 fragment with D13, L14, I16 or R18 mutated to alanine ([6]; numbering per SEQ ID NO: 275)	binding to F5 mutant peptides #1, 5, 6, and 7 ([6]; similar affinity)	binding to epitope fragment F5 [7]	cross-competition with the other anti-FAM19A5 antibodies (FAM19A5 antigen)	binding to F5 mutant peptides #1, 6, and 8 [6]	binding to F5 mutant peptides #2, 3, 4, 5, and 7 [6]	binding to the other fragments (F1-F4 and F6) ([7]; ELISA)
B1	failed to bind	bound strongly	much reduced binding										
B2				failed to bind	failed to bind	failed to bind	no longer able to bind	able to bind	bound strongly	cross-competed with one another			
B3				reduced binding	failed to bind	failed to bind				cross-competed with one another			
B4					strongly binding	failed to bind			strongly		not to mutant peptides #1, 6, and 8	high binding	not significantly
